According to the supplement of paper PMC11246515:
± gives the standard deviation of the averaged measurements.

Experiment: total protein half-life in vivo (active degradation + dilution); higher = more stable protein
[1] = E. coli NCM3722 delta-lon, growth: N-lim chemostat, doubling time 6 h
[2] = E. coli NCM3722 delta-smpB, growth: N-lim chemostat, doubling time 6 h
[3] = wild type E. coli NCM3722, growth: C-lim chemostat, doubling time 3 h
[4] = wild type E. coli NCM3722, growth: C-lim chemostat, doubling time 6 h
[5] = wild type E. coli NCM3722, growth: C-lim chemostat, doubling time 12 h
[6] = wild type E. coli NCM3722, growth: N-lim chemostat, doubling time 6 h
[7] = wild type E. coli NCM3722, growth: N-lim chemostat, doubling time 12 h
[8] = wild type E. coli NCM3722, growth: P-lim chemostat, doubling time 6 h
[9] = wild type E. coli NCM3722, growth: P-lim chemostat, doubling time 12 h
[10] = E. coli NCM3722 delta-clpP delta-lon delta-hslV, growth: N-lim chemostat, doubling time 6 h
[11] = E. coli NCM3722 delta-clpP, growth: N-lim chemostat, doubling time 6 h
[12] = E. coli NCM3722 delta-hslV, growth: N-lim chemostat, doubling time 6 h

Sequence | total protein half-life in vivo [1] | total protein half-life in vivo [2] | total protein half-life in vivo [3] | total protein half-life in vivo [4] | total protein half-life in vivo [5] | total protein half-life in vivo [6] | total protein half-life in vivo [7] | total protein half-life in vivo [8] | total protein half-life in vivo [9] | total protein half-life in vivo [10] | total protein half-life in vivo [11] | total protein half-life in vivo [12]
MRTVKVFEEAWPLHTPFVIARGSRSEARVVVVELEEEGIKGTGECTPYPRYGESDASVMAQIMSVVPQLEKGLTREELQKILPAGAARNALDCALWDLAARRQQQSLADLIGITLPETVITAQTVVIGTPDQMANSASTLWQAGAKLLKVKLDNHLISERMVAIRTAVPDATLIVDANESWRAEGLAARCQLLADLGVAMLEQPLPAQDDAALENFIHPLPICADESCHTRSNLKALKGRYEMVNIKLDKTGGLTEALALATEARAQGFSLMLGCMLCTSRAISAALPLVPQVSFADLDGPTWLAVDVEPALQFTTGELHL | 5.93 ± 1.4 h | 4.33 ± 0.052 h | 2.73 ± 0.18 h | 6.31 ± 1.1 h | 9.313 ± 0.054 h | 4.81 ± 0.22 h | 11.2 ± 2.8 h | 5.54 ± 0.5 h | 12.119 ± 0.011 h |  |  | 
MRTVLNILNFVLGGFATTLGWLLATLVSIVLIFTLPLTRSCWEITKLSLVPYGNEAIHVDELNPAGKNVLLNTGGTVLNIFWLIFFGWWLCLMHIATGIAQCISIIGIPVGIANFKIAAIALWPVGRRVVSVETAQAAREANARRRFE [P0AB12] | 5.93 ± 0.27 h | 6.1 ± 0.31 h | 2.89 ± 0.29 h | 6.33 ± 0.089 h | 12.5 ± 1 h | 6.72 ± 1.3 h | 12.3 ± 3.2 h | 5.98 ± 0.26 h | 12 ± 0.12 h | 6.35 ± 0.66 h | 6.3 ± 0.72 h | 5.92 ± 0.069 h
MRVDAIAKVTGRARYTDDYVMAGMCYAKYVRSPIAHGYAVSINDEQARSLPGVLAIFTWEDVPDIPFATAGHAWTLDENKRDTADRALLTRHVRHHGDAVAIVVARDELTAEKAAQLVSIEWQELPVITTPEAALAEDAAPIHNGGNLLKQSTMSTGNVQQTIDAADYQVQGHYQTPVIQHCHMESVTSLAWMEDDSRITIVSSTQIPHIVRRVVGQALDIPWSCVRVIKPFVGGGFGNKQDVLEEPMAAFLTSKLGGIPVKVSLSREECFLATRTRHAFTIDGQMGVNRDGTLKGYSLDVLSNTGAYASHGHSIASAGGNKVAYLYPRCAYAYSSKTCYTNLPSAGAMRGYGAPQVVFAVESMLDDAATALGIDPVEIRLRNAAREGDANPLTGKRIYSAGLPECLEKGRKIFEWEKRRAECQNQQGNLRRGVGVACFSYTSNTWPVGVEIAGARLLMNQDGTINVQSGATEIGQGADTVFSQMVAETVGVPVSDVRVISTQDTDVTPFDPGAFASRQSYVAAPALRSAALLLKEKIIAHAAVMLHQSAMNLTLIKGHIVLVERPEEPLMSLKDLAMDAFYHPERGGQLSAESSIKTTTNPPAFGCTFVDLTVDIALCKVTINRILNVHDSGHILNPLLAEGQVHGGMGMGIGWALFEEMIIDAKSGVVRNPNLLDYKMPTMPDLPQLESAFVEINEPQSAYGHKSLGEPPIIPVAAAIRNAVKMATGVAINTLPLTPKRLYEEFHLAGLI |  |  | 1.88 ± 0.088 h | 2.81 ± 0.68 h | 3.56 ± 1.4 h |  |  |  |  | 5 h |  | 
MRVLIKNGTVVNADGQAKQDLLIESGIVRQLGNNISPQLPYEEIDATGCYVFPGGVDVHTHFNIDVGIARSCDDFFTGTRAAACGGTTTIIDHMGFGPNGCRLRHQLEVYRGYAAHKAVIDYSFHGVIQHINHAILDEIPMIVEEGLSSFKLYLTYQYKLNDDEVLQALRRLHESGALTTVHPENDAAIASKRAEFIAAGLTAPRYHALSRPLECEAEAIARMINLAQIAGNAPLYIVHLSNGLGLDYLRLARANHQPVWVETCPQYLLLDERSYDTEDGMKFILSPPLRNVREQDKLWCGISDGAIDVVATDHCTFSMAQRLQISKGDFSRCPNGLPGVENRMQLLFSSGVMTGRITPERFVELTSAMPARLFGLWPQKGLLAPGSDGDVVIIDPRQSQQIQHRHLHDNADYSPWEGFTCQGAIVRTLSRGETIFCDGTFTGKAGRGRFLRRKPFVPPVL |  |  | > 4 h |  |  |  |  |  | 12.1 h |  |  | 
MRVLIVKTSSMGDVLHTLPALTDAQQAIPGIKFDWVVEEGFAQIPSWHAAVERVIPVAIRRWRKAWFSAPIKAERKAFREALQAENYDAVIDAQGLVKSAALVTRLAHGVKHGMDWQTAREPLASLFYNRKHHIAKQQHAVERTRELFAKSLGYSKPQTQGDYAIAQHFLTNLPTDAGEYAVFLHATTRDDKHWPEEHWRELIGLLADSGIRIKLPWGAPHEEERAKRLAEGFAYVEVLPKMSLEGVARVLAGAKFVVSVDTGLSHLTAALDRPNITVYGPTDPGLIGGYGKNQMVCRAPRENLINLNSQAVLEKLSSL | 5.08 ± 0.063 h | 5.74 ± 1.2 h | 2.76 ± 0.13 h | 5.73 ± 0.28 h | 13.2 ± 2.2 h | 5.72 ± 0.27 h | 11.5 ± 2.6 h | 5.23 ± 0.16 h | 10.63 ± 0.039 h | 5.54 ± 0.21 h | 5.02 ± 0.34 h | 5.1 h
MRVLKFGGTSVANAERFLRVADILESNARQGQVATVLSAPAKITNHLVAMIEKTISGQDALPNISDAERIFAELLTGLAAAQPGFPLAQLKTFVDQEFAQIKHVLHGISLLGQCPDSINAALICRGEKMSIAIMAGVLEARGHNVTVIDPVEKLLAVGHYLESTVDIAESTRRIAASRIPADHMVLMAGFTAGNEKGELVVLGRNGSDYSAAVLAACLRADCCEIWTDVDGVYTCDPRQVPDARLLKSMSYQEAMELSYFGAKVLHPRTITPIAQFQIPCLIKNTGNPQAPGTLIGASRDEDELPVKGISNLNNMAMFSVSGPGMKGMVGMAARVFAAMSRARISVVLITQSSSEYSISFCVPQSDCVRAERAMQEEFYLELKEGLLEPLAVTERLAIISVVGDGMRTLRGISAKFFAALARANINIVAIAQGSSERSISVVVNNDDATTGVRVTHQMLFNTDQVIEVFVIGVGGVGGALLEQLKRQQSWLKNKHIDLRVCGVANSKALLTNVHGLNLENWQEELAQAKEPFNLGRLIRLVKEYHLLNPVIVDCTSSQAVADQYADFLREGFHVVTPNKKANTSSMDYYHQLRYAAEKSRRKFLYDTNVGAGLPVIENLQNLLNAGDELMKFSGILSGSLSYIFGKLDEGMSFSEATTLAREMGYTEPDPRDDLSGMDVARKLLILARETGRELELADIEIEPVLPAEFNAEGDVAAFMANLSQLDDLFAARVAKARDEGKVLRYVGNIDEDGVCRVKIAEVDGNDPLFKVKNGENALAFYSHYYQPLPLVLRGYGAGNDVTAAGVFADLLRTLSWKLGV | 4.89 ± 0.11 h | 4.13 ± 0.11 h | 3.08 ± 0.21 h | 5.9 ± 0.22 h | 13.5 ± 0.33 h | 4.29 ± 0.33 h | 7.56 ± 0.76 h | 6.53 ± 0.39 h | 12.2 ± 0.26 h | 5.65 ± 0.16 h | 4.31 ± 0.13 h | 4.513 ± 0.01 h
